# Results published in patent US20030036092A1.
# Target: fluorogenic OmpT peptide substrate (BODIPY / trimethylrhodamine)
# Assay: cell-based or functional assay
substance,measurement,value
"OmpT protease, wild type, expressed from multicopy plasmid pML19 in E. coli UT5600 (from UniProt P09169 21-317) (enzyme)",mean fluorescence intensity of cells by FACS after exposure to the fluorogenic substrate,30 times
